Assay results reported in US20230322950A1.

How the values were obtained:
[1] = biological target: VH1VL1-CD8ATD-CD137CSD-CD3zSSD fusion
[2] = biological target: VH3VL1-CD8ATD-CD137CSD-CD3zSSD fusion
[3] = biological target: VL1VH3-CD8ATD-CD137CSD-CD3zSSD fusion
[4] = biological target: VH2VL1-CD8ATD-CD137CSD-CD3zSSD fusion
[5] = biological target: VL1VH3-CD8ATD-CD137CSD-CD3zSSD fusion; remark: listed apart in the source
[6] = biological target: VH2VL1-CD8ATD-CD137CSD-CD3zSSD fusion; remark: listed apart in the source
[7] = biological target: VH1VL1-CD8ATD-CD137CSD-CD3zSSD fusion; remark: listed apart in the source
[8] = biological target: VH3VL1-CD8ATD-CD137CSD-CD3zSSD fusion; remark: listed apart in the source
[9] = biological target: VL1VH3-CD8ATD-CD137CSD-CD3zSSD fusion; remark: listed apart in the source
[10] = biological target: VH2VL1-CD8ATD-CD137CSD-CD3zSSD fusion; remark: listed apart in the source

Sequence of VL1VH3-CD8ATD-CD137CSD-CD3zSSD fusion (chain, as listed by the source): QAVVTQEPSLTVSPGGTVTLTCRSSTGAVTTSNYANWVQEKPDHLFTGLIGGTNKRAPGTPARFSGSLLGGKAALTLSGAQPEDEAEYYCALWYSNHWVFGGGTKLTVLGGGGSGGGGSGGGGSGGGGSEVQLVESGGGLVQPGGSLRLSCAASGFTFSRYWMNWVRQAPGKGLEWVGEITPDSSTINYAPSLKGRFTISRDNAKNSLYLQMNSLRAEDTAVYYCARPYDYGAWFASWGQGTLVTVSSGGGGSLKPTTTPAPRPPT
Sequence of VH2VL1-CD8ATD-CD137CSD-CD3zSSD fusion (chain, as listed by the source): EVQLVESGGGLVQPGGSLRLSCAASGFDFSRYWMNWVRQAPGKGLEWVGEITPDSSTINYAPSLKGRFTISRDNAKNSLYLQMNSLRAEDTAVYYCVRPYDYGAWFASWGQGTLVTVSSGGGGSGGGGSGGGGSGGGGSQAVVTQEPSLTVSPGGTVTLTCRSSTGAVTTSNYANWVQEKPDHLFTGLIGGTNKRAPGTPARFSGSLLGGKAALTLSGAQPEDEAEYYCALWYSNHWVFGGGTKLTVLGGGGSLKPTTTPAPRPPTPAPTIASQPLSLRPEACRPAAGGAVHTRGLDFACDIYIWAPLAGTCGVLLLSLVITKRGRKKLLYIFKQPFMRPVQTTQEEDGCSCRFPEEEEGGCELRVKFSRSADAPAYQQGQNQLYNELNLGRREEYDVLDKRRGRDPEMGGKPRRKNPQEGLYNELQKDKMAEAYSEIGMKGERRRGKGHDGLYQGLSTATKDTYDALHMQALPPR
Sequence of VH1VL1-CD8ATD-CD137CSD-CD3zSSD fusion (chain, as listed by the source): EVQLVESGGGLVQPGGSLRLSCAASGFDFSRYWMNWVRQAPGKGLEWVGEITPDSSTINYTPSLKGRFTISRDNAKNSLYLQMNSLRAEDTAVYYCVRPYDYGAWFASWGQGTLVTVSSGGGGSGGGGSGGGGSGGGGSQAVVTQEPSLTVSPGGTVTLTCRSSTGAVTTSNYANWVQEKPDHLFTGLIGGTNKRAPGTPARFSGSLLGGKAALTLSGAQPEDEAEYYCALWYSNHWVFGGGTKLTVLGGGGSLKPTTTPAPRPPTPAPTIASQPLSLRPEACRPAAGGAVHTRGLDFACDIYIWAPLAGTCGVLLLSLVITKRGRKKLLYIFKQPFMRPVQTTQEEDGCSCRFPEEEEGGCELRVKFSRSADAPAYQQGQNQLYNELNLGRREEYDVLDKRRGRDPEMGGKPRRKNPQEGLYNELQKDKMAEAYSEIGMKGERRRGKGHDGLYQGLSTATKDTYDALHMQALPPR
Sequence of VH3VL1-CD8ATD-CD137CSD-CD3zSSD fusion (chain, as listed by the source): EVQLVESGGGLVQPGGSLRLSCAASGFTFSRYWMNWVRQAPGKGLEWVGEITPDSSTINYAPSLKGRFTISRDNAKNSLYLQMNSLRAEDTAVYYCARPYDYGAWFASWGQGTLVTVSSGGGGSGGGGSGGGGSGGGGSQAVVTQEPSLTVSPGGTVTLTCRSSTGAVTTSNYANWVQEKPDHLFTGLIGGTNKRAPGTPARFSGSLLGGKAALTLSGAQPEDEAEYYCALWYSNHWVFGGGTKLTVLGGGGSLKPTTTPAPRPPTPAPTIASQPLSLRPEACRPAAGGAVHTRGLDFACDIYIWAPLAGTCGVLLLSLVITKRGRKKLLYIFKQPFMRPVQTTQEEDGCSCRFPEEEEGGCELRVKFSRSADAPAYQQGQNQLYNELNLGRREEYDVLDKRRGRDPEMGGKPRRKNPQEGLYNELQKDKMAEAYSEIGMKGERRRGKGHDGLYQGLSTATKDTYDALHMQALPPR

Substance “anti-CD20 (GA101) P329G LALA IgG1 (antibody)” has an EC50 of Jurkat NFAT luciferase reporter activation (RLU/s), WSUDLCL2 target cells 5:1; drawn table, row 'VH1 x VL1' [1] of 8.1 pM, an EC50 of Jurkat NFAT luciferase reporter activation (RLU/s), WSUDLCL2 target cells 5:1; drawn table, row 'VH3 x VL1' [2] of 7.57 pM and an EC50 of Jurkat NFAT luciferase reporter activation (RLU/s), WSUDLCL2 target cells 5:1; drawn table, row 'VL1 x VH 3' [3] of 6.58 pM. It also gave an EC50 of Jurkat NFAT luciferase reporter activation (RLU/s), WSUDLCL2 target cells 5:1; drawn table, row 'VH2 x VL1' [4] of 6.93 pM.
In the case of DP47 P329G LALA (antibody), the EC50 printed in the drawn table (row 'VL1 x VH 3') for the Jurkat NFAT reporter assay with WSUDLCL2 cells and untargeted DP47 P329G LALA; the curve stays near background (about 60 to 110 RLU/s) [5] is reported as 7420 pM and the EC50 printed in the drawn table (row 'VH2 x VL1') for the Jurkat NFAT reporter assay with WSUDLCL2 cells and untargeted DP47 P329G LALA; the curve stays at background (about 60 to 90 RLU/s) [6] is reported as 293 pM.
With “anti-CD20 (GA101) D246A P329G IgG1 (antibody)” the EC50 of Jurkat NFAT luciferase reporter activation (RLU/s), WSUDLCL2 target cells 5:1; drawn table, row 'VH1 x VL1'; x axis 'GA101 D246A P329G [nM]' [7] was 0.00814 nM, the EC50 of Jurkat NFAT luciferase reporter activation (RLU/s), WSUDLCL2 target cells 5:1; drawn table, row 'VH3 x VL1'; x axis 'GA101 D246A P329G [nM]' [8] was 0.00582 nM and the EC50 of Jurkat NFAT luciferase reporter activation (RLU/s), WSUDLCL2 target cells 5:1; drawn table, row 'VL1 x VH 3'; x axis 'GA101 D246A P329G [nM]' [9] was 0.00619 nM. For the same substance, the EC50 of Jurkat NFAT luciferase reporter activation (RLU/s), WSUDLCL2 target cells 5:1; drawn table, row 'VH2 x VL1'; x axis 'GA101 D246A P329G [nM]' [10] was 0.0104 nM.
